The source of these data is the supplement of paper PMC10567573.

B1: VENTX (parent)
chain: VFQHHQYLSPLERKRLAREMQLSE
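Further: lentivirally expressed fusions sorted by FACS into six bins by GFP to DsRed ratio, PSI derived from sequencing read proportions per bin multiplied by bin number.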

The variants in this data set derive from B1. In words: protein stability index of a GFP-peptide fusion (GPS, HEK-293T) (PSI 1-6); higher = more stable. As to conditions: c terminus: a fixed tail appended.
Take VFQHHQYLSPLEYKRLAREMQLSE: the protein stability index came to 1.77.

In the case of VFQHHQYLSPLENKRLAREMQLSE, the protein stability index stood at 3.31.

As for VFQHHQYLSPLECKRLAREMQLSE, the protein stability index is 2.45.

Turning to VFQHHQYLSPLEGKRLAREMQLSE, the protein stability index stood at 1.83.

On to VFQHHQYLSPLEKKRLAREMQLSE, for which the protein stability index amounted to 2.62.

For VFQHHQYLSPLEMKRLAREMQLSE, the protein stability index is 2.43.

Turning to VFQHHQYLSPLEFKRLAREMQLSE, the protein stability index worked out at 1.92.

On to VFQHHQYLSPLEHKRLAREMQLSE, for which the protein stability index was found to be 2.07.

For the variant VFQHHQYLSPLEAKRLAREMQLSE, the protein stability index is 2.32.

Take VFQHHQYLSPLEEKRLAREMQLSE: the protein stability index stood at 2.44.

For the variant VFQHHQYLSPLEPKRLAREMQLSE, the protein stability index was found to be 2.06.

In the case of VFQHHQYLSPLELKRLAREMQLSE, the protein stability index was 2.66.

With VFQHHQYLSPLETKRLAREMQLSE, the protein stability index came out at 2.32.

Consider VFQHHQYLSPLEIKRLAREMQLSE, for which the protein stability index came out at 2.26.

With VFQHHQYLSPLESKRLAREMQLSE, the protein stability index is 2.44.

On to VFQHHQYLSPLEVKRLAREMQLSE, for which the protein stability index was 2.4.

Regarding VFQHHQYLSPLEWKRLAREMQLSE, the protein stability index turned out to be 1.87.

Consider VFQHHQYLSPLEQKRLAREMQLSE, for which the protein stability index is 2.94.

As for VFQHHQYLSPLEDKRLAREMQLSE, the protein stability index was determined as 2.56.

As to VFQHHQYLSPSERKRLAREMQLSE, the protein stability index is 2.64.

As to VFQHHQYLSPVERKRLAREMQLSE, the protein stability index came out at 2.53.

On to VFQHHQYLSPWERKRLAREMQLSE, for which the protein stability index amounted to 2.84.

Take VFQHHQYLSPEERKRLAREMQLSE: the protein stability index was 3.41.

Turning to VFQHHQYLSPTERKRLAREMQLSE, the protein stability index was found to be 2.93.

VFQHHQYLSPPERKRLAREMQLSE: the protein stability index amounted to 2.1.

On to VFQHHQYLSPIERKRLAREMQLSE, for which the protein stability index stood at 2.4.

As for VFQHHQYLSPFERKRLAREMQLSE, the protein stability index is 2.42.

Regarding VFQHHQYLSPKERKRLAREMQLSE, the protein stability index is 3.03.

Regarding VFQHHQYLSPAERKRLAREMQLSE, the protein stability index turned out to be 3.

Consider VFQHHQYLSPHERKRLAREMQLSE, for which the protein stability index was 2.77.

Consider VFQHHQYLSPRERKRLAREMQLSE, for which the protein stability index was determined as 2.31.

For the variant VFQHHQYLSPQERKRLAREMQLSE, the protein stability index is 2.73.

In the case of VFQHHQYLSPDERKRLAREMQLSE, the protein stability index was determined as 2.97.

In the case of VFQHHQYLSPYERKRLAREMQLSE, the protein stability index was determined as 2.66.

VFQHHQYLSPNERKRLAREMQLSE: the protein stability index was found to be 3.2.

VFQHHQYLSPGERKRLAREMQLSE: the protein stability index is 1.95.

On to VFQHHQYLSPCERKRLAREMQLSE, for which the protein stability index amounted to 2.4.

As to VFQHHQYLSPMERKRLAREMQLSE, the protein stability index stood at 2.65.

Consider VFQHHQYLVPLERKRLAREMQLSE, for which the protein stability index was 2.08.

As to VFQHHQYLAPLERKRLAREMQLSE, the protein stability index came out at 2.

In the case of VFQHHQYLNPLERKRLAREMQLSE, the protein stability index turned out to be 2.59.

Turning to VFQHHQYLWPLERKRLAREMQLSE, the protein stability index is 1.52.

In the case of VFQHHQYLGPLERKRLAREMQLSE, the protein stability index came to 2.38.

Regarding VFQHHQYLMPLERKRLAREMQLSE, the protein stability index turned out to be 2.33.

VFQHHQYLLPLERKRLAREMQLSE: the protein stability index came out at 2.22.

Turning to VFQHHQYLKPLERKRLAREMQLSE, the protein stability index was found to be 2.39.

With VFQHHQYLPPLERKRLAREMQLSE, the protein stability index was 2.88.

In the case of VFQHHQYLCPLERKRLAREMQLSE, the protein stability index is 2.17.

On to VFQHHQYLIPLERKRLAREMQLSE, for which the protein stability index turned out to be 1.69.

On to VFQHHQYLHPLERKRLAREMQLSE, for which the protein stability index came out at 2.38.

In the case of VFQHHQYLFPLERKRLAREMQLSE, the protein stability index is 1.99.

VFQHHQYLQPLERKRLAREMQLSE: the protein stability index amounted to 3.25.

VFQHHQYLDPLERKRLAREMQLSE: the protein stability index stood at 2.73.

As to VFQHHQYLYPLERKRLAREMQLSE, the protein stability index was found to be 2.21.

In the case of VFQHHQYLRPLERKRLAREMQLSE, the protein stability index was 2.64.

For the variant VFQHHQYLTPLERKRLAREMQLSE, the protein stability index was found to be 2.21.

Take VFQHHQYLEPLERKRLAREMQLSE: the protein stability index is 2.86.

Turning to VFQHHQYLSPLERCRLAREMQLSE, the protein stability index was 2.98.

VFQHHQYLSPLERARLAREMQLSE: the protein stability index came to 2.67.

In the case of VFQHHQYLSYLERKRLAREMQLSE, the protein stability index came out at 2.54.

For the variant VFQHHQYLSWLERKRLAREMQLSE, the protein stability index amounted to 1.96.

Consider VFQHHQYLSCLERKRLAREMQLSE, for which the protein stability index was found to be 2.32.

As to VFQHHQYLSMLERKRLAREMQLSE, the protein stability index worked out at 2.23.

Regarding VFQHHQYLSLLERKRLAREMQLSE, the protein stability index was 2.67.

In the case of VFQHHQYLSSLERKRLAREMQLSE, the protein stability index stood at 2.89.

For VFQHHQYLSDLERKRLAREMQLSE, the protein stability index stood at 2.31.

As to VFQHHQYLSELERKRLAREMQLSE, the protein stability index stood at 2.91.

In the case of VFQHHQYLSVLERKRLAREMQLSE, the protein stability index came out at 2.63.

Turning to VFQHHQYLSQLERKRLAREMQLSE, the protein stability index is 2.46.

On to VFQHHQYLSTLERKRLAREMQLSE, for which the protein stability index was determined as 1.86.

Turning to VFQHHQYLSFLERKRLAREMQLSE, the protein stability index is 1.91.

Turning to VFQHHQYLSGLERKRLAREMQLSE, the protein stability index was found to be 2.23.

Turning to VFQHHQYLSNLERKRLAREMQLSE, the protein stability index was 2.82.

For VFQHHQYLSKLERKRLAREMQLSE, the protein stability index is 2.52.

VFQHHQYLSHLERKRLAREMQLSE: the protein stability index amounted to 2.73.

As for VFQHHQYLSILERKRLAREMQLSE, the protein stability index stood at 2.42.

As to VFQHHQYLSALERKRLAREMQLSE, the protein stability index stood at 2.62.

With VFQHHQYWSPLERKRLAREMQLSE, the protein stability index came out at 1.83.

As for VFQHHQYESPLERKRLAREMQLSE, the protein stability index was found to be 3.66.

In the case of VFQHHQYHSPLERKRLAREMQLSE, the protein stability index came to 2.75.

For VFQHHQYQSPLERKRLAREMQLSE, the protein stability index is 2.89.

VFQHHQYVSPLERKRLAREMQLSE: the protein stability index was 2.41.

On to VFQHHQYTSPLERKRLAREMQLSE, for which the protein stability index stood at 2.4.

In the case of VFQHHQYPSPLERKRLAREMQLSE, the protein stability index was found to be 2.52.

Turning to VFQHHQYNSPLERKRLAREMQLSE, the protein stability index came to 2.72.

In the case of VFQHHQYRSPLERKRLAREMQLSE, the protein stability index was found to be 2.25.

On to VFQHHQYCSPLERKRLAREMQLSE, for which the protein stability index is 2.22.

On to VFQHHQYFSPLERKRLAREMQLSE, for which the protein stability index was found to be 2.62.

As for VFQHHQYMSPLERKRLAREMQLSE, the protein stability index came to 2.55.

As to VFQHHQYASPLERKRLAREMQLSE, the protein stability index came to 2.65.

Regarding VFQHHQYGSPLERKRLAREMQLSE, the protein stability index was found to be 2.42.

As to VFQHHQYISPLERKRLAREMQLSE, the protein stability index amounted to 3.02.

For the variant VFQHHQYYSPLERKRLAREMQLSE, the protein stability index worked out at 2.32.

Regarding VFQHHQYKSPLERKRLAREMQLSE, the protein stability index amounted to 3.6.
